Columns and labels:
[1] = target: T1, human PD-1/Fc protein (R&D Systems, catalog #1086-PD) (human, UniProt Q15116 25-170); test: ELISA, biotinylated IgG1-TM on coated ECD
T1 construct: extracellular domain; Bought; not shown: Fc portion
Protocol: (§1) ELISAs were performed to determine the cross-reactivity of the anti-B7-H1 IgG1-TM antibodies for other immune co-modulatory molecules. […] Murine cross reactivity was also investigated by coating the ECD of murine B7-H1 (R&D Systems, 1019-B7). Biotinylated anti-B7-H1 IgG1-TM diluted at 100 nM in PBS containing 3% dried milk powder, were incubated at room temperature for 2 h to allow binding. Bound biotinylated IgGs were detected with europium N1-labelled streptavidin (Perkin Elmer, 1244-360) at 0.2 ug/mL. […] Primary antibodies were incubated at 5 ug/mL in PBS containing 3% dried milk powder for 2 h at room temperature. Detection was carried out by incubating the secondary antibody anti-mouse IgG Peroxidase conjugate (Sigma, A2554) or anti-rat IgG Peroxidase conjugate (Sigma, A5795) diluted 1:5000 in PBS containing 3% dried milk powder for 1 h at room temperature and subsequent addition of TMB (Sigma, T0440). […] Non-specific binding was determined using wells coated with the IgG1 isotype control at 5 ug/mL. Cross reactivities were calculated at a percent of the specific binding to the antigen relative to human B7-H1.

[2] = target: T2, extracellular domain of human PD-L2 (R&D Systems, 1224-PL) (human, UniProt Q9BQ51 20-220); test: ELISA, biotinylated IgG1-TM on coated ECD
T2 construct: extracellular domain; Bought
T2 sequence (looked up): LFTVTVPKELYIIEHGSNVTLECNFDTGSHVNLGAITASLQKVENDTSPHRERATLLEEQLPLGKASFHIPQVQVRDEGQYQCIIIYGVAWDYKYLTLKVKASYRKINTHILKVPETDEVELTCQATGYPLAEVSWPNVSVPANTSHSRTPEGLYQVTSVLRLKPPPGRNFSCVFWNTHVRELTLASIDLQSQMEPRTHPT
Protocol: as §1

[3] = target: T3, extracellular domain of human B7-H2 (R&D Systems, 165-B7) (human, UniProt O75144 19-256); test: ELISA, biotinylated IgG1-TM on coated ECD
T3 construct: extracellular domain; Bought
T3 sequence (looked up): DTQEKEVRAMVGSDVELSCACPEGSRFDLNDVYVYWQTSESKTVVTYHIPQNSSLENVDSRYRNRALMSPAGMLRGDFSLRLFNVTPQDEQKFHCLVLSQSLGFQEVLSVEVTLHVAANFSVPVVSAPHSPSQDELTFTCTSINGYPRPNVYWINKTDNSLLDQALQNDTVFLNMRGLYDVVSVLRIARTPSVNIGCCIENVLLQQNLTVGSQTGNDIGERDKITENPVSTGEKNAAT
Protocol: as §1

[4] = target: T4, extracellular domain of human CD28 (R&D Systems, 342-CD) (human, UniProt P10747 19-152); test: ELISA, biotinylated IgG1-TM on coated ECD
T4 construct: extracellular domain; Bought
Protocol: as §1

[5] = target: T5, extracellular domain of human CTLA-4 (R&D Systems, 325-CT) (human, UniProt P16410 36-161); test: ELISA, biotinylated IgG1-TM on coated ECD
T5 construct: extracellular domain; Bought
T5 sequence (looked up): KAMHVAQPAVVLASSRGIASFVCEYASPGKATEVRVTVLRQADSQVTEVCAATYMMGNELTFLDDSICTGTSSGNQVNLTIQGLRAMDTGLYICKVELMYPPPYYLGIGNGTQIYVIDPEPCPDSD
Protocol: as §1

[6] = target: T6, extracellular domain of murine B7-H1 (R&D Systems, 1019-B7) (murine, UniProt Q9EP73 19-239); test: ELISA, biotinylated IgG1-TM on coated murine B7-H1 ECD
T6 construct: extracellular domain; Bought
Protocol: as §1

[7] = target: T7, recombinant monomeric cynomologus B7-H1 FlagHis10 extracellular domain (cynomologus); test: SPR (BIAcore T100), IgG captured via protein G, monomeric cynomologus B7-H1 ECD as analyte, 25 °C, 1:1 model
T7 construct: extracellular domain; also called CYNO B7H1
Protocol: The binding affinity and kinetic parameters of anti-B7-H1 antibodies in the IgG1-TM format to monomeric human and cynomologus B7-H1 were determined by surface plasmon resonance using a BIAcore T100 instrument (BIAcore, Uppsala, Sweden). In brief, experiments were performed at 25° C. using HBS-EP buffer (10 mM HEPES, 150 mM NaCl, 3 mM EDTA, 0.05% v/v surfactant P20) as running buffer. IgGs were affinity captured on the surface of a CM5 sensor chip (BIAcore) via protein G, which was amine coupled onto the CM5 surface to achieve the density of ˜500 Response Units (RU), according to the manufacturer's instructions (BIAapplications Handbook, BIAcore). Recombinant monomeric human or cynomologus B7-H1 FlagHis₁₀ extracellular domains (ECDs) were used as analytes. […] All measurements were baseline corrected by subtracting the sensorgram obtained with the control (activated-deactivated) flow cell, as well as double referenced with blank (zero analyte concentration) injections. Data were analyzed using the T-100 BIAevaluation software package and fitted to a simple 1:1 Langmuir binding model with local Rₘₐₓ and bulk refractive index set to 0. Data were calculated from at least two independent experiments. Mass transport effects were limited by keeping the level of affinity-captured IgGs below 250 RU.

T6 sequence (Q9EP73 19-239): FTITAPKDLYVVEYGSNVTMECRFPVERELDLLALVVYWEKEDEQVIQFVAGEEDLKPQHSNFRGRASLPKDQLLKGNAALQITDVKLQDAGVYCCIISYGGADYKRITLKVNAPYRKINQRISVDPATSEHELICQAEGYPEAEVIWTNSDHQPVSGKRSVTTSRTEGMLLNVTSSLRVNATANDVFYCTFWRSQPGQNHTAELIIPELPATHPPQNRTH
T1 sequence (Q15116 25-170): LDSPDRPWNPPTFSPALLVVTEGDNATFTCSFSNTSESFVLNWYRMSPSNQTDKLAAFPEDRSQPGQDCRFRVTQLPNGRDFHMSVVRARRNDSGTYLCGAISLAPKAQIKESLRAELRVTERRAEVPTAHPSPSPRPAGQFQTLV
T4 sequence (P10747 19-152): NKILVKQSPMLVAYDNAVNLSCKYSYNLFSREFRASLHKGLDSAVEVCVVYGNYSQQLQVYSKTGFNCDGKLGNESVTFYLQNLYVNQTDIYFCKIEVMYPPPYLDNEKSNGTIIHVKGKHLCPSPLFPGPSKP

Row | Binder | binding result [1] | binding result [2] | binding result [3] | binding result [4] | binding result [5] | binding result [6] | Kd [7] [pM]
1 | 2.9D10 in the IgG1-TM format (antibody, V domains shown, Recombinant human IgG1-TM (IgG1 with L234F, L235E, P331S), kappa; also called 2.9D10 IgG1-TM) VH: EVQLVESGGGLVQPGGSLRLSCAASGFTFSSYWMSWVRQAPGKGLEWVANIKQDGGEQYYVDSVKGRFTISRDNAKNSLYLQMNSLRAEDTAVYYCARDWNYGYYDMDVWGQGTTVTVSS VL: EIVLTQSPGTLSLSPGERATLSCRASQSVSSNYLAWFQQKPGQAPRLLIFGTSSRATGIPDRFSGSGSGTDFTLTISRLEPEDFAVYYCQQYGSSIFTFGPGTKVDIK | no binding (tested: 100 nM) | no binding (tested: 100 nM) | no binding (tested: 100 nM) | no binding (tested: 100 nM) | no binding (tested: 100 nM) | no binding (tested: 100 nM) | 
2 | 2.14H9OPT (antibody, V domains shown, Germlined VL; human IgG1-TM (L234F, L235E, P331S), kappa) VH: EVQLVESGGGLVQPGGSLRLSCAASGFTFSRYWMSWVRQAPGKGLEWVANIKQDGSEKYYVDSVKGRFTISRDNAKNSLYLQMNSLRAEDTAVYYCAREGGWFGELAFDYWGQGTLVTVSS VL: EIVLTQSPGTLSLSPGERATLSCRASQRVSSSYLAWYQQKPGQAPRLLIYDASSRATGIPDRFSGSGSGTDFTLTISRLEPEDFAVYYCQQYGSLPWTFGQGTKVEIK | no binding (tested: 100 nM) | no binding (tested: 100 nM) | no binding (tested: 100 nM) | no binding (tested: 100 nM) | no binding (tested: 100 nM) | no binding (tested: 100 nM) | 367

From patent US20130034559A1 (AstraZeneca / MedImmune, published 2013)
